The values below come from article PMC3777412.

The term Kd denotes a measure of binding affinity in units of concentration.

For one assay, the target named is pY580 peptide (human). Kind of assay: SPR. A general note: SPR reads the build-up and loss of mass on a sensor chip optically.
The target of the next assay is pY542 peptide (human). Description: SPR.

With “C-SH2 domain of Shp2, histidine-tagged (domain or fragment)”, the Kd was 294 µM with pY580 peptide (human) and 15.1 µM with pY542 peptide (human).
